How the values were obtained:
[1] = molecular target: antibodies of human serum sample 16CDV61275; experiment: DAGS blocking; signal antigen m3 S-ZIKA-NS1-ß-ladder
[2] = molecular target: antibodies of human serum sample 16CDV61278; experiment: as above
[3] = molecular target: antibodies of human serum sample 16CDV61197; experiment: as above
[4] = molecular target: antibodies of human serum sample 16CDV61275; experiment: DAGS blocking; signal antigen m1 SS-ZIKA-NS1-wing
[5] = molecular target: antibodies of human serum sample 16CDV61278; experiment: DAGS blocking; signal antigen m1 SS-ZIKA-NS1-wing
[6] = molecular target: antibodies of human serum sample 16CDV61197; experiment: DAGS blocking; signal antigen m1 SS-ZIKA-NS1-wing

B1: Dengue virus type 4 NS1 full length aa 1-352 (protein)
chain: DTGCAVSWSGKELKCGSGIFVIDNVHTWTEQYKFQPESPARLASAILNAHEDGVCGIRSTTRLENIMWKQITNELNYVLWEGGHDLTVVAGDVKGVLSKGKRALAPPVNDLKYSWKTWGKAKIFTPEAKNSTFLIDGPDTSECPNERRAWNFLEVEDYGFGMFTTNIWMKFREGSSEVCDHRLMSAAIKDQKAVHADMGYWIESSKNQTWQIEKASLIEVKTCLWPKTHTLWSNGVLESQMLIPKAYAGPFSQHNYRQGYATQTVGPWHLGKLEIDFGECPGTTVTIQEDCDHRGPSLRTTTASGKLVTQWCCRSCTMPPLRFLGEDGCWYGMEIRPLSEKEENMVKSQVSA
Question: With B1 as the binder, how does the Blocking [%] [1] read?
Answer: 25.1%

Question: And the Blocking [%] normalized to Zika [1]?
Answer: 27.3%

Question: And the counts [1]?
Answer: 2730 counts

Question: And the Blocking [%] [2]?
Answer: 2.6%

Question: And the Blocking [%] normalized to Zika [2]?
Answer: 3.7%

Question: What about the counts [2] of the same binder?
Answer: 2830 counts

Question: And the Blocking [%] [3]?
Answer: 31.6%

Question: What about the Blocking [%] normalized to Zika [3] of the same binder?
Answer: 50.3%

Question: What about the counts [3] of the same binder?
Answer: 2320 counts

Question: What about the Blocking [%] [4] of the same binder?
Answer: 2.48%

Question: And the Blocking [%] normalized to Zika [4]?
Answer: 3.3%

Question: And the counts [4]?
Answer: 3040 counts

Question: What about the Blocking [%] [5] of the same binder?
Answer: 4.5%

Question: And the Blocking [%] normalized to Zika [5]?
Answer: 4.9%

Question: What about the counts [5] of the same binder?
Answer: 2880 counts

Question: And the Blocking [%] [6]?
Answer: 0.891%

Question: And the Blocking [%] normalized to Zika [6]?
Answer: 1.2%

Question: What about the counts [6] of the same binder?
Answer: 2900 counts

From patent US20220220158A1
